Where “and” joins values, the source holds several entries; their conditions need not be identical. Equal entries are not always repeated.
B1: recombinant human MMP-2 (protein)
chain: YNFFPRKPKWDKNQITYRIIGYTPDLDPETVDDAFARAFQVWSDVTPLRFSRIHDGEADIMINFGRWEHGDGYPFDGKDGLLAHAFAPGTGVGGDSHFDDDELWTLGEGQVVRVKYGNADGEYCKFPFLFNGKEYNSCTDTGRSDGFLWCSTTYNFEKDGKYGFCPHEALFTMGGNAEGQPCKFPFRFQGTSYDSCTTEGRTDGYRWCGTTEDYDRDKKYGFCPETAMSTVGGNSEGAPCVFPFTFLGNKYESCTSAGRSDGKMWCATTANYDDDRKWGFCPDQGYSLFLVAAHEFGHAMGLEHSQDPGALMAPIYTYTKNFRLSQDDIKGIQELYGASPDIDLGTGPTPTLGPVTPEICKQDIVFDGIAQIRGEIFFFKDRFIWRTVTPRDKPMGPLLVATFWPELPEKIDAVYEAPQEEKAVFFAGNEYWIYSASTLERGYPKPLTSLGLPPDVQRVDAAFNWSKNKKTYIFAGDKFWRYNEVKKKMDPGFPKLIADAWNAIPDNLDAVVDLQGGGHSYFFKGAYYLKLENQSLKSVKFGSIKSDWLGC
B2: recombinant human MMP-7 (protein)
chain: YSLFPNSPKWTSKVVTYRIVSYTRDLPHITVDRLVSKALNMWGKEIPLHFRKVVWGTADIMIGFARGAHGDSYPFDGPGNTLAHAFAPGTGLGGDAHFDEDERWTDGSSLGINFLYAATHELGHSLGMGHSSDPNAVMYPTYGNGDPQNFKLSQDDIKGIQKLYGKRSNSRKK

Columns and labels:
[1] = molecular target: TC53
[2] = molecular target: TC57
[3] = molecular target: TC68
[4] = molecular target: TC69
[5] = molecular target: TC70
[6] = molecular target: TC71
[7] = molecular target: TC73
[8] = molecular target: TC74
[9] = molecular target: TC75
[10] = molecular target: TC24
[11] = molecular target: TC3
[12] = molecular target: TC46
[13] = molecular target: TC47
TC47, sequence (chain, as listed by the source, chain 1 of 3, other chains not shown): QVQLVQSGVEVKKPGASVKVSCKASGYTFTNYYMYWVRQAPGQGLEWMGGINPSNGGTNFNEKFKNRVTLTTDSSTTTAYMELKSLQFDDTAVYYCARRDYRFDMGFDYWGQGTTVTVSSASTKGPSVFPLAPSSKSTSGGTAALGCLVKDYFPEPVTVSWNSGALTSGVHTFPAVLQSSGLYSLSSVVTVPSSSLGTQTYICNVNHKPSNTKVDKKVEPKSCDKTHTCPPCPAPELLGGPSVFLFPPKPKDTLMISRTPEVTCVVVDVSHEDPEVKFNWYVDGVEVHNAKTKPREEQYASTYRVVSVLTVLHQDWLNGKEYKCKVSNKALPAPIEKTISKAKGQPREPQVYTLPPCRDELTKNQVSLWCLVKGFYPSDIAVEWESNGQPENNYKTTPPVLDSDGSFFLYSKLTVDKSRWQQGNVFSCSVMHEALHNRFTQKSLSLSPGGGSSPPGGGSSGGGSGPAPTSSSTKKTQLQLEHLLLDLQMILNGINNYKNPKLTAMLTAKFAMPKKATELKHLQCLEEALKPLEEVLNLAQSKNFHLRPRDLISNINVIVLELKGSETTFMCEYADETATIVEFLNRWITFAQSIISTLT
TC47, sequence (chain, as listed by the source, chain 2 of 3, other chains not shown): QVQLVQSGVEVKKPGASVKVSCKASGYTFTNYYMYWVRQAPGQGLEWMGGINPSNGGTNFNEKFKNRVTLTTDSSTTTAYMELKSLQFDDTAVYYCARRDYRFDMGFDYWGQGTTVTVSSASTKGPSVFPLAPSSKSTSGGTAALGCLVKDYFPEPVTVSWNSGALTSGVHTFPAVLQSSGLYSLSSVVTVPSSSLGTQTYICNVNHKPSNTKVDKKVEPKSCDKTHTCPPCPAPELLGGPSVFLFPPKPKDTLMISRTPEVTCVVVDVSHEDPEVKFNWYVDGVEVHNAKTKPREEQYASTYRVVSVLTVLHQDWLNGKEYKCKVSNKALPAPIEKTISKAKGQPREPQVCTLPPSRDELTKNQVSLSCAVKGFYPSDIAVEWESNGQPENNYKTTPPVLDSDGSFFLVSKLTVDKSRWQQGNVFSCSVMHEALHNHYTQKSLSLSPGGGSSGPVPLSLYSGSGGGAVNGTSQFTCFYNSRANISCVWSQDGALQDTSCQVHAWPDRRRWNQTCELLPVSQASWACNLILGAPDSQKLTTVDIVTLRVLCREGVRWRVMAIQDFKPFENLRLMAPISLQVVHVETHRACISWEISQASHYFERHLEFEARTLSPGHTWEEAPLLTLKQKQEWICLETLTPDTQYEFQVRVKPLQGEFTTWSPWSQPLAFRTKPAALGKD

TC3, sequence (chain, as listed by the source, chain 1 of 3, other chains not shown): as the sequence (chain, as listed by the source, chain 1 of 3, other chains not shown) above
TC3, sequence (chain, as listed by the source, chain 2 of 3, other chains not shown): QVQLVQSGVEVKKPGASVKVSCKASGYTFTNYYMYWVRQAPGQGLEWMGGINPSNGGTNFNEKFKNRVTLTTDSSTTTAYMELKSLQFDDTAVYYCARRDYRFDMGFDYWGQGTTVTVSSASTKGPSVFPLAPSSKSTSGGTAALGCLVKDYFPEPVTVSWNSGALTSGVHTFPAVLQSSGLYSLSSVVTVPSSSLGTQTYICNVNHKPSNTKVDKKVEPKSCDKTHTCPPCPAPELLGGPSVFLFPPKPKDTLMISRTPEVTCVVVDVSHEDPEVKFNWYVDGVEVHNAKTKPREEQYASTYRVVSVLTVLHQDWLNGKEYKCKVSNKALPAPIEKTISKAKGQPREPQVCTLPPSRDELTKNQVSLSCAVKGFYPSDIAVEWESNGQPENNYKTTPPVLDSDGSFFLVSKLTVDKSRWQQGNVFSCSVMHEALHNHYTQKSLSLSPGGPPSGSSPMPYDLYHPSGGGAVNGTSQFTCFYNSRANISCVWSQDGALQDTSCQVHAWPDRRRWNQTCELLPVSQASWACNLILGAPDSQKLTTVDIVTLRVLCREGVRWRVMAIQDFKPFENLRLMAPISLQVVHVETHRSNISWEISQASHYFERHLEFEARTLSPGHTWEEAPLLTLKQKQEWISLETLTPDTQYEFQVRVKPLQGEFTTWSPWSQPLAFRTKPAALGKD
TC46, sequence (chain, as listed by the source, chain 1 of 3, other chains not shown): as the sequence (chain, as listed by the source, chain 1 of 3, other chains not shown) above
TC46, sequence (chain, as listed by the source, chain 2 of 3, other chains not shown): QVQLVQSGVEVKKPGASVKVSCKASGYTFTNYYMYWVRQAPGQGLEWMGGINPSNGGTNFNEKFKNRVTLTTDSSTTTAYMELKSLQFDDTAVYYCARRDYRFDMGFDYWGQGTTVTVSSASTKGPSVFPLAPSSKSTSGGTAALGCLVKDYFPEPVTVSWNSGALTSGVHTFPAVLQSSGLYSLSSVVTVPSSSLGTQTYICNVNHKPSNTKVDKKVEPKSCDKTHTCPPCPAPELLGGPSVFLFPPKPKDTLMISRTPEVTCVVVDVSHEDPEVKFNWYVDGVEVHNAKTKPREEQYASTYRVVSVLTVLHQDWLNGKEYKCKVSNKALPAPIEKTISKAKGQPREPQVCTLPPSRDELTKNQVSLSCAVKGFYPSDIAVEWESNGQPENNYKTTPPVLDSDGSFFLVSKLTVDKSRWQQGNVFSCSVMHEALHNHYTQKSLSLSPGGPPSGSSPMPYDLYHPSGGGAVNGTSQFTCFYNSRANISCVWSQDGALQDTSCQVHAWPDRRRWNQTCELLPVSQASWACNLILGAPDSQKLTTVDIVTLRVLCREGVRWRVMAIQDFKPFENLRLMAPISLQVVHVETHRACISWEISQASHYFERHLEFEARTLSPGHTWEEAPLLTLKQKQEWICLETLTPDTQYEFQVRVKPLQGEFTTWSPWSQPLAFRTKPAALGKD
TC24, sequence (chain, as listed by the source, chain 1 of 3, other chains not shown): as the sequence (chain, as listed by the source, chain 1 of 3, other chains not shown) above
TC24, sequence (chain, as listed by the source, chain 2 of 3, other chains not shown): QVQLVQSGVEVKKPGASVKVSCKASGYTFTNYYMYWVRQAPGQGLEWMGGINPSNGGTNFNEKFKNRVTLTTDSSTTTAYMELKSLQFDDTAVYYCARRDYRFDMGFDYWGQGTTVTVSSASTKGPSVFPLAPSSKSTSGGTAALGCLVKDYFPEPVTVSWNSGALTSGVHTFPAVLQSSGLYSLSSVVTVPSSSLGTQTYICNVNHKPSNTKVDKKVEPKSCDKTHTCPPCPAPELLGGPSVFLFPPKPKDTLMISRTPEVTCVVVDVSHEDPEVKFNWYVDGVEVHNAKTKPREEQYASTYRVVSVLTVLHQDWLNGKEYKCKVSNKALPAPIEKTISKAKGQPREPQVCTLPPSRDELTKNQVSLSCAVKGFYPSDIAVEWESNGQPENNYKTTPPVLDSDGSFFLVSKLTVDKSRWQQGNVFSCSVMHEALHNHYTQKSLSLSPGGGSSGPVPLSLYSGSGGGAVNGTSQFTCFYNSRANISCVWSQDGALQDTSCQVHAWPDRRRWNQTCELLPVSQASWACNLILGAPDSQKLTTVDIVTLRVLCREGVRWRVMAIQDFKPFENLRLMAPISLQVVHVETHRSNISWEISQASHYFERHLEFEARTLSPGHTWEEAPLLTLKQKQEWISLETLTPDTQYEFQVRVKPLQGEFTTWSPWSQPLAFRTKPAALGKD

Row | Protein | Est. kcat/KM [1] | Est. kcat/KM [2] | Est. kcat/KM [3] [M⁻¹ s⁻¹] | Est. kcat/KM [4] | Est. kcat/KM [5] [M⁻¹ s⁻¹] | Est. kcat/KM [6] | Est. kcat/KM [7] | Est. kcat/KM [8] | Est. kcat/KM [9] | Est. kcat/KM [10] [M⁻¹ s⁻¹] | Est. kcat/KM [11] [M⁻¹ s⁻¹] | Est. kcat/KM [12] [M⁻¹ s⁻¹] | Est. kcat/KM [13] [M⁻¹ s⁻¹]
1 | B1 | 4900 M⁻¹ s⁻¹ and 4700 M⁻¹ s⁻¹ | 4000 M⁻¹ s⁻¹ and 4400 M⁻¹ s⁻¹ | 3800 | 51000 M⁻¹ s⁻¹ and 50000 M⁻¹ s⁻¹ | 11000 | 130000 M⁻¹ s⁻¹ and 140000 M⁻¹ s⁻¹ | 43000 M⁻¹ s⁻¹ and 41000 M⁻¹ s⁻¹ | 9600 M⁻¹ s⁻¹ and 9800 M⁻¹ s⁻¹ | 120000 M⁻¹ s⁻¹ and 110000 M⁻¹ s⁻¹ | – | – | – | –
2 | B2 | 24000 M⁻¹ s⁻¹ and 23000 M⁻¹ s⁻¹ | 13000 M⁻¹ s⁻¹ and 15000 M⁻¹ s⁻¹ | 13000 | 78000 M⁻¹ s⁻¹ | – | 19000 M⁻¹ s⁻¹ and 22000 M⁻¹ s⁻¹ | 71000 M⁻¹ s⁻¹ and 67000 M⁻¹ s⁻¹ | – | 18000 M⁻¹ s⁻¹ and 19000 M⁻¹ s⁻¹ | 140000 | 13000 | 13000 | 130000

Source: US20230365641
